Kd and EC50 data for five molecules are collected here from patent US20250002605A1 (WUHAN YZY BIOPHARMA, published 2025).

In assay [1] the target is human CD3 antigen (SB, Cat: CT038-H2508H) (human, UniProt P07766 23-126; P04234 22-105). The assay can be described thus: SPR (Biacore T200), antigen amine-coupled on CM5, antibody as analyte, 1:1 fit; D0 sample. In general terms: Surface plasmon resonance follows binding to a sensor surface in real time, without labels.
Assay [2] addresses T1, human EpCAM antigen (SB, Cat: 10694-H08H) (human, UniProt P16422 24-265).
T1 construct: Bought antigen immobilised on a CM5 chip
T1 sequence (looked up): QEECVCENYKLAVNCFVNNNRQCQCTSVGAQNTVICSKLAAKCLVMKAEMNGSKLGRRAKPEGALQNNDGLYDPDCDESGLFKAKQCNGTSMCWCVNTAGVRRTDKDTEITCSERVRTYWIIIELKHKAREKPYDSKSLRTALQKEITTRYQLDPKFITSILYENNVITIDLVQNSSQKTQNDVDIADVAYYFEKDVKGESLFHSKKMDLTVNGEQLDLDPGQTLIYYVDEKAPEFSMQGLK
The description is as above.

Assay [3] addresses T2, human EpCAM on the cell surface (human, UniProt P16422 24-314).
T2 construct: whole, on cells; also called EpCAM of cells; HCT116 cells
T2 sequence (looked up): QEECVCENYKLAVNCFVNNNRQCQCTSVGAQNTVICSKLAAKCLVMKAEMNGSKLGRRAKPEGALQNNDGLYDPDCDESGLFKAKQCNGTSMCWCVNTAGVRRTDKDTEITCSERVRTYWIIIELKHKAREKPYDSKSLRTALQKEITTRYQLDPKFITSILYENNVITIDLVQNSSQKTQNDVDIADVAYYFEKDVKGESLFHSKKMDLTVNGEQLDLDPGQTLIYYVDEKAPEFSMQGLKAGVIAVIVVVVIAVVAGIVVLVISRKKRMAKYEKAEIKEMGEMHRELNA
The assay can be described thus: flow cytometry (FACS) on HCT116 cells, PE anti-human IgG Fc detection. On the technique in general: In flow cytometry, cells or beads pass a laser one at a time.

B1: M701C (bispecific antibody, human IgG1, kappa)
light: ELVMTQSPSSLTVTAGEKVTMSCKSSQSLLNSGNQKNYLTWYQQKPGQPPKLLIYWASTRESGVPDRFTGSGSGTDFTLTISSVQAEDLAVYYCQNDYSYPLTFGAGTKLEIKRTVAAPSVFIFPPSDEQLKSGTASVVCLLNNFYPREAKVQWKVDNALQSGNSQESVTEQDSKDSTYSLSSTLTLSKADYEKHKVYACEVTHQGLSSPVTKSFNRGEC
heavy: EVQLLEQSGAELVRPGTSVKISCKASGYAFTNYWLGWVKQRPGHGLEWIGDIFPGSGNIHYNEKFKGKATLTADKSSSTAYMQLSSLTFEDSAVYFCARLRNWDEPMDYWGQGTTVTVSSASTKGPSVFPLAPSSKSTSGGTAALGCLVKDYFPEPVTVSWNSGALTSGVHTFPAVLQSSGLYSLSSVVTVPSSSLGTQTYICNVNHKPSNTKVDKKVEPKSCDKTHTCPPCPAPELLGGPSVFLFPPKPKDTLMISRTPEVTCVVVDVSHEDPEVKFNWYVDGVEVHNAKTKPREEQYNSTYRVVSVLTVLHQDWLNGKEYKCKVSNKALPAPIEKTISKAKGQPREPQVYTLPPSRDELTKNQVSLWCLVKGFYPSDIAVEWESNGQPENNYDTTPPVLDSDGSFFLYSDLTVDKSRWQQGNVFSCSVMHEALHNHYTQKSLSLSPGK
chain: EVQLVESGGGLVQPGGSLRLSCKASGYTFTRYTMHWVRQAPGKGLEWIGYINPSRGYTNYNQKVKDRFTISRDNSKNTAFLQMDSLRPEDTGVYFCARYYDDHYCLDYWGQGTPVTVSSGGGGSGGGGSGGGGSDIQMTQSPSSLSASVGDRVTITCSASSSVSYMNWYQQTPGKAPKRWIYDTSKLASGVPSRFSGSGSGTDYTFTISSLQPEDIATYYCQQWSSNPFTFGQGTKVEIKRGAAAEPKSCDKTHTCPPCPAPELLGGPSVFLFPPKPKDTLMISRTPEVTCVVVDVSHEDPEVKFNWYVDGVEVHNAKTKPREEQYNSTYRVVSVLTVLHQDWLNGKEYKCKVSNKALPAPIEKTISKAKGQPREPQVYTLPPSRDELTKNQVSLTCRVKGFYPSDIAVEWESNGQPENNYKTTPPVLKSDGSFFLASKLTVDKSRWQQGNVFSCSVMHEALHNHYTQKSLSLSPGK
notes: YBODY format; also called bispecific antibody M701C
For orientation: Kd means a measure of binding affinity in units of concentration. Take B1: the Kd was determined as 37.2 nM in assay [1] and 18.6 nM in assay [2].

B2: M701D (bispecific antibody, human IgG1, kappa)
light: ELVMTQSPSSLTVTAGEKVTMSCKSSQSLLNSGNQKNYLTWYQQKPGQPPKLLIYWASTRESGVPDRFTGSGSGTDFTLTISSVQAEDLAVYYCQNDYSYPLTFGAGTKLEIKRTVAAPSVFIFPPSDEQLKSGTASVVCLLNNFYPREAKVQWKVDNALQSGNSQESVTEQDSKDSTYSLSSTLTLSKADYEKHKVYACEVTHQGLSSPVTKSFNRGEC
heavy: EVQLLEQSGAELVRPGTSVKISCKASGYAFTNYWLGWVKQRPGHGLEWIGDIFPGSGNIHYNEKFKGKATLTADKSSSTAYMQLSSLTFEDSAVYFCARLRNWDEPMDYWGQGTTVTVSSASTKGPSVFPLAPSSKSTSGGTAALGCLVKDYFPEPVTVSWNSGALTSGVHTFPAVLQSSGLYSLSSVVTVPSSSLGTQTYICNVNHKPSNTKVDKKVEPKSCDKTHTCPPCPAPELLGGPSVFLFPPKPKDTLMISRTPEVTCVVVDVSHEDPEVKFNWYVDGVEVHNAKTKPREEQYNSTYRVVSVLTVLHQDWLNGKEYKCKVSNKALPAPIEKTISKAKGQPREPQVYTLPPSRDELTKNQVSLWCLVKGFYPSDIAVEWESNGQPENNYDTTPPVLDSDGSFFLYSDLTVDKSRWQQGNVFSCSVMHEALHNHYTQKSLSLSPGK
chain: EVQLLESGGGLVQPGGSLRLSCAASGFTFSSFPMAWVRQAPGKGLEWVSTISTSGGRTYYRDSVKGRFTISRDNSKNTLYLQMNSLRAEDTAVYYCAKFRQYSGGFDYWGQGTLVTVSSGGGGSGGGGSGGGGSDIQLTQPNSVSTSLGSTVKLSCTLSSGNIENNYVHWYQLYEGRSPTTMIYDDDKRPDGVPDRFSGSIDRSSNSAFLTIHNVAIEDEAIYFCHSYVSSFNVFGGGTKLTVLRQPGAAAEPKSCDKTHTCPPCPAPELLGGPSVFLFPPKPKDTLMISRTPEVTCVVVDVSHEDPEVKFNWYVDGVEVHNAKTKPREEQYNSTYRVVSVLTVLHQDWLNGKEYKCKVSNKALPAPIEKTISKAKGQPREPQVYTLPPSRDELTKNQVSLTCRVKGFYPSDIAVEWESNGQPENNYKTTPPVLKSDGSFFLASKLTVDKSRWQQGNVFSCSVMHEALHNHYTQKSLSLSPGK
notes: YBODY format; also called bispecific antibody M701D
B2 displayed a Kd in assay [2] of 14.4 nM.

B3: M701E (bispecific antibody)
light: ELVMTQSPSSLTVTAGEKVTMSCKSSQSLLNSGNQKNYLTWYQQKPGQPPKLLIYWASTRESGVPDRFTGSGSGTDFTLTISSVQAEDLAVYYCQNDYSYPLTFGAGTKLEIKRTVAAPSVFIFPPSDEQLKSGTASVVCLLNNFYPREAKVQWKVDNALQSGNSQESVTEQDSKDSTYSLSSTLTLSKADYEKHKVYACEVTHQGLSSPVTKSFNRGEC
heavy: EVQLLEQSGAELVRPGTSVKISCKASGYAFTNYWLGWVKQRPGHGLEWIGDIFPGSGNIHYNEKFKGKATLTADKSSSTAYMQLSSLTFEDSAVYFCARLRNWDEPMDYWGQGTTVTVSSASTKGPSVFPLAPSSKSTSGGTAALGCLVKDYFPEPVTVSWNSGALTSGVHTFPAVLQSSGLYSLSSVVTVPSSSLGTQTYICNVNHKPSNTKVDKKVEPKSCDKTHTCPPCPAPELLGGPSVFLFPPKPKDTLMISRTPEVTCVVVDVSHEDPEVKFNWYVDGVEVHNAKTKPREEQYNSTYRVVSVLTVLHQDWLNGKEYKCKVSNKALPAPIEKTISKAKGQPREPQVYTLPPSRDELTKNQVSLWCLVKGFYPSDIAVEWESNGQPENNYDTTPPVLDSDGSFFLYSDLTVDKSRWQQGNVFSCSVMHEALHNHYTQKSLSLSPGK
chain: not shown
notes: YBODY format; also called bispecific antibody M701E
In turn, B3 yielded a Kd in assay [2] of 23.1 nM.

B4: M701F (bispecific antibody, human IgG1, kappa)
light: ELVMTQSPSSLTVTAGEKVTMSCKSSQSLLNSGNQKNYLTWYQQKPGQPPKLLIYWASTRESGVPDRFTGSGSGTDFTLTISSVQAEDLAVYYCQNDYSYPLTFGAGTKLEIKRTVAAPSVFIFPPSDEQLKSGTASVVCLLNNFYPREAKVQWKVDNALQSGNSQESVTEQDSKDSTYSLSSTLTLSKADYEKHKVYACEVTHQGLSSPVTKSFNRGEC
heavy: EVQLLEQSGAELVRPGTSVKISCKASGYAFTNYWLGWVKQRPGHGLEWIGDIFPGSGNIHYNEKFKGKATLTADKSSSTAYMQLSSLTFEDSAVYFCARLRNWDEPMDYWGQGTTVTVSSASTKGPSVFPLAPSSKSTSGGTAALGCLVKDYFPEPVTVSWNSGALTSGVHTFPAVLQSSGLYSLSSVVTVPSSSLGTQTYICNVNHKPSNTKVDKKVEPKSCDKTHTCPPCPAPELLGGPSVFLFPPKPKDTLMISRTPEVTCVVVDVSHEDPEVKFNWYVDGVEVHNAKTKPREEQYNSTYRVVSVLTVLHQDWLNGKEYKCKVSNKALPAPIEKTISKAKGQPREPQVYTLPPSRDELTKNQVSLWCLVKGFYPSDIAVEWESNGQPENNYDTTPPVLDSDGSFFLYSDLTVDKSRWQQGNVFSCSVMHEALHNHYTQKSLSLSPGK
chain: QVQLVQSGAEVKKPGASVKVSCKASGYTFISYTMHWVRQAPGQGLEWMGYINPRSGYTHYNQKLKDKATLTADKSASTAYMELSSLRSEDTAVYYCARSAYYDYDGFAYWGQGTLVTVSSGGGGSGGGGSGGGGSDIQMTQSPSSLSASVGDRVTITCSASSSVSYMNWYQQKPGKAPKRLIYDTSKLASGVPSRFSGSGSGTDFTLTISSLQPEDFATYYCQQWSSNPPTFGGGTKVEIKRGAAAEPKSCDKTHTCPPCPAPELLGGPSVFLFPPKPKDTLMISRTPEVTCVVVDVSHEDPEVKFNWYVDGVEVHNAKTKPREEQYNSTYRVVSVLTVLHQDWLNGKEYKCKVSNKALPAPIEKTISKAKGQPREPQVYTLPPSRDELTKNQVSLTCRVKGFYPSDIAVEWESNGQPENNYKTTPPVLKSDGSFFLASKLTVDKSRWQQGNVFSCSVMHEALHNHYTQKSLSLSPGK
notes: YBODY format; also called bispecific antibody M701F
Consider B4, for which the Kd turned out to be 61.3 nM in assay [1] and 17.9 nM in assay [2].

B5: M700 monoclonal antibody (antibody, human IgG1, kappa, V domains shown)
VH: VQLLEQSGAELVRPGTSVKISCKASGYAFTNYWLGWVKQRPGHGLEWIGDIFPGSGNIHYNEKFKGKATLTADKSSSTAYMQLSSLTFEDSAVYFCARLRNWDEPMDYWGQGTTVTVSS
VL: ELVMTQSPSSLTVTAGEKVTMSCKSSQSLLNSGNQKNYLTWYQQKPGQPPKLLIYWASTRESGVPDRFTGSGSGTDFTLTISSVQAEDLAVYYCQNDYSYPLTFGAGTKLEIKR
notes: also called anti-EpCAM monoclonal antibody control
For orientation: EC50 means the concentration giving half of the maximal effect. A lower EC50 goes with higher potency in that assay. As for B5, in assay [3], the EC50 was 1.78 nM.
